Experimental data from patent US20120282269A1 (Boehringer Ingelheim, published 2012).
Several values for one entry are separate records, joined by “and”; a condition that tells them apart may be missing. Equal entries are not always repeated.

T1: natural human IL-23 from activated THP-1 cells (human, UniProt P29460 23-328)
T1 sequence 1: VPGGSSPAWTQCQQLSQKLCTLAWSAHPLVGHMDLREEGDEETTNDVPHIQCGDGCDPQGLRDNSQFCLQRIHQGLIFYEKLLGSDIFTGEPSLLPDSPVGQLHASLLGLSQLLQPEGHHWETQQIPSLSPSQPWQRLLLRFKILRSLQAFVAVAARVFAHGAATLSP
T1 sequence 2: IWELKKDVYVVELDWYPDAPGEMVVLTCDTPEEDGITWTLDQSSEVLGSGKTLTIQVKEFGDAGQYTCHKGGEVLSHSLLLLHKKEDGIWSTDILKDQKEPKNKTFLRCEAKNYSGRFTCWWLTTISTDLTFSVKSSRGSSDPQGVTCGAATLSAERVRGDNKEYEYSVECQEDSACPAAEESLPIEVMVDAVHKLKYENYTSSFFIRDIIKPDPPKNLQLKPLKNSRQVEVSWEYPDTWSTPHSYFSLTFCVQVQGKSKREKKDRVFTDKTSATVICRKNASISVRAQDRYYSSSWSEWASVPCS

T2: recombinant human IL-23 (human, UniProt P29460 23-328)
T2 sequence 1: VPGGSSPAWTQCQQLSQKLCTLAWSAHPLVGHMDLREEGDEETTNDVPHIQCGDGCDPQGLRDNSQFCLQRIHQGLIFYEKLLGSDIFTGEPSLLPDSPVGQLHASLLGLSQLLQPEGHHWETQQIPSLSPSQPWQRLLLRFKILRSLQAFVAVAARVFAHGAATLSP
T2 sequence 2: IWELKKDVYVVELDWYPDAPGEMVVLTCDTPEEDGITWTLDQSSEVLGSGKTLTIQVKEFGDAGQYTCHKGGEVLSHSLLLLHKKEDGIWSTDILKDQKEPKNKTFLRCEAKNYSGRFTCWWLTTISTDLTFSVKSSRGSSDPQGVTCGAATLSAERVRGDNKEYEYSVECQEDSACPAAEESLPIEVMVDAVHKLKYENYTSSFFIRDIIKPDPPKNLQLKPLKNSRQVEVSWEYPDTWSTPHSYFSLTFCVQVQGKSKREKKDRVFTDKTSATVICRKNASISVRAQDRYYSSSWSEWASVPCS

T3: human IL-12 (human, UniProt P29459 23-219; P29460 23-328)
T3 sequence (looked up) 1: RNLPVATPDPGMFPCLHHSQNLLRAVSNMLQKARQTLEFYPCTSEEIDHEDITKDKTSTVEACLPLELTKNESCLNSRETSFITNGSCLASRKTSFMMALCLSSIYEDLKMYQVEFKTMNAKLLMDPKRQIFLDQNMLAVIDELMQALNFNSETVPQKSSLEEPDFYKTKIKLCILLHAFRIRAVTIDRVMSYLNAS
T3 sequence (looked up) 2: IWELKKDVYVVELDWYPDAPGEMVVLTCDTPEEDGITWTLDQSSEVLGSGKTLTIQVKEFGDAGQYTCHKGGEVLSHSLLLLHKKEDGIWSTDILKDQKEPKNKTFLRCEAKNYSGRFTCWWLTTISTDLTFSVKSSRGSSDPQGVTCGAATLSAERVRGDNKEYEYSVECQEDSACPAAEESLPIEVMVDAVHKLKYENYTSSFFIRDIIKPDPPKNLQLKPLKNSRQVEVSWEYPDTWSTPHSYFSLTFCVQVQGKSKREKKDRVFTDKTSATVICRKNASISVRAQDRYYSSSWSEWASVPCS

B1: Antibody A (antibody, human IgG1, kappa, L234A L235A, V domains shown)
VH: QVQLVQSGAEVKKPGSSVKVSCKASGYTFTDQTIHWMRQAPGQGLEWIGYIYPRDDSPKYNENFKGKVTITADKSTSTAYMELSSLRSEDTAVYYCAIPDRSGYAWFIYWGQGTLVTVSS
VL: DIQMTQSPSSLSASVGDRVTITCKASRDVAIAVAWYQQKPGKVPKLLIYWASTRHTGVPSRFSGSGSRTDFTLTISSLQPEDVADYFCHQYSSYPFTFGSGTKLEIKR
B2: Antibody C (antibody, human IgG1, kappa, L234A L235A, V domains shown)
VH: QVQLVQSGAEVKKPGSSVKVSCKASGYTFTDQTIHWMRQAPGQGLEWIGYIYPRDDSPKYNENFKGKVTITADKSTSTAYMELSSLRSEDTAVYYCAIPDRSGYAWFIYWGQGTLVTVSS
VL: DIQMTQSPSSLSASVGDRVTITCKASRDVAIAVAWYQQKPGKVPKLLLFWASTRHTGVPDRFSGSGSGTDFTLTISSLQPEDLADYYCHQYSSYPFTFGQGTKLEIKR
B3: Antibody D (antibody, human IgG1, kappa, L234A L235A, V domains shown)
VH: QVQLVQSGAEVKKPGSSVKVSCKASGFTFTDQTIHWVRQAPGQGLEWMGYIYPRDDSPKYNENFKGKVTLTADKSTSTAYMELSSLRSEDTAVYYCAIPDRSGYAWFIYWGQGTLVTVSS
VL: DIQMTQSPSSLSASVGDRVTITCKASRDVAIAVAWYQQKPGKVPKLLLFWASTRHTGVPDRFSGSGSGTDFTLTISSLQPEDLADYYCHQYSSYPFTFGQGTKLEIKR
B4: Antibody B (antibody, human IgG1, kappa, L234A L235A, V domains shown)
VH: QVQLVQSGAEVKKPGSSVKVSCKASGFTFTDQTIHWVRQAPGQGLEWMGYIYPRDDSPKYNENFKGKVTLTADKSTSTAYMELSSLRSEDTAVYYCAIPDRSGYAWFIYWGQGTLVTVSS
VL: DIQMTQSPSSLSASVGDRVTITCKASRDVAIAVAWYQQKPGKVPKLLIYWASTRHTGVPSRFSGSGSRTDFTLTISSLQPEDVADYFCHQYSSYPFTFGSGTKLEIKR
B5: Chimeric 18E5 (antibody, V domains shown)
VH: EVQLQQSGPELVKPGAAVKMSCKASGYTFTRYLIHWVKQKPGQGLEWIGYINPYNDGTKYNEKFKGKATLTSDKSSSTAYMELSSLTSEDSAVYYCTSNWDLDYWGQGTTLTVSS
VL: DIVMTQSPATLSVTPGDRVSLSCRASQSISDYLYWYQQKSHESPRLLIKFASQSISGIPSRFTGSGSGSDFTLSIDSVEPDDVGVFFCQNGHSFPFTFGGGTKLEIK
B6: Chimeric 6B8 (antibody, IgG1, V domains shown)
VH: QVQLQQSDAELVKPGTSVKTSCKISGNTFTDQTIHWMKQRPEQGLEWIGYIYPRDDSPKYNENFKGKATLTADKSSSTAYMQLNSLTSEDSAVYFCAIPDRSGYAWFIYWGQGTLVTVSS
VL: DIVMTQSHKFLSTSVGDRVTITCKASRDVAIAVAWYQQKPGQSPKLLLFWASTRHTGVPDRFTGSGSRTDFTLTISNVQSEDLADYFCHQYSSYPFTFGSGTKLEIK

Columns and labels:
Assay in all cases: cell-based or functional assay
[1] = target: T1, natural human IL-23 from activated …
[2] = target: T2, recombinant human IL-23
[3] = target: T3, human IL-12
[4] = target: T2, recombinant human IL-23; remark: listed apart in the source

Row | Binder | IC50, inhibition of IL-17 production from IL-23 stimulated mouse splenocytes [1] | IC50, inhibition of IL-17 production from IL-23 stimulated mouse splenocytes [2] | Average pg/ml IFN-γ +/- Standard Deviation, human PHA-derived T cell blasts with 1 ng/ml IL-12 (no antibody: 532 +/- 51; unstimulated: 87 +/- 7) [3] | IC50, inhibition of IL-23 induced STAT3 phosphorylation in human DB cells [4]
1 | B1 | 0.001 nM | 0.005 nM and 0.015 nM | 497 pg/mL | –
2 | B2 | 0.016 nM and 0.032 nM | – | 495 pg/mL | 0.132 nM and 0.08 nM
3 | B3 | 0.133 nM and 0.125 nM | 0.236 nM and 0.225 nM and 0.614 nM and 0.458 nM | 539 pg/mL | 0.158 nM
4 | B4 | 0.009 nM and 0.008 nM | – | 537 pg/mL | 0.073 nM and 0.084 nM
5 | B5 | – | 0.031 nM | 511 pg/mL | –
6 | B6 | 0.005 nM and 0.002 nM and 0.006 nM and 0.003 nM | 0.026 nM and 0.037 nM and 0.057 nM | 523 pg/mL | –
